The numbers were not newly measured in publication PMC4117600, which cites them from elsewhere.

Where two headings read alike, the source gives them in different places.

In data set [1] the target is CCR4 (Homo sapiens) (UniProt P51679).
For data set [2] the target is unchanged. The source holds these as a separate data set.

Sequence of CCR4 (Homo sapiens) (P51679 whole entry): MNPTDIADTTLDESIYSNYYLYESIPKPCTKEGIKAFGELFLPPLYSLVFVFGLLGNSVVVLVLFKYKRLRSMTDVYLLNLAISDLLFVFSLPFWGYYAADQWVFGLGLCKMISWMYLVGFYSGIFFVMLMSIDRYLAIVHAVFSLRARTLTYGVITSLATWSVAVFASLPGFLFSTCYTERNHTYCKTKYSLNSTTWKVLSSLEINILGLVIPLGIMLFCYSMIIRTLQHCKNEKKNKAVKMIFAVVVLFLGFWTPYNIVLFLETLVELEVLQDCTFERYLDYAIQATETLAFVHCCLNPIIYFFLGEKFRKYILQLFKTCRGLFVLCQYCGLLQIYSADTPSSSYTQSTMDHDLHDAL
Sequence of CCL22 (O00626 25-93): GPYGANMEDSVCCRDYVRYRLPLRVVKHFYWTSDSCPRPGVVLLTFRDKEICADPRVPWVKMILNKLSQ
Sequence of CCL17 (Q92583 24-94): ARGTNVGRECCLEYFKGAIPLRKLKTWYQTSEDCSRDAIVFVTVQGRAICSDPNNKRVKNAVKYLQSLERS

Broadly, the Kd is the equilibrium constant for the complex coming apart. With CCL17 (from UniProt Q92583), in data set [1], the Kd is 2.1 nM.
With CCL22 (from UniProt O00626), in data set [2], the Kd is 0.18 nM.
